Measurements: patent US20210293791A1, “BACTERIAL VAGINOSIS DIAGNOSTIC” (MOLOGIC LTD, priority 2018, published 2021)
Non-standard residues stand in square brackets, D forms with d. Primed or numbered codes have the meaning given here. Gal = galactose on Ser (no sialyl group); Biotin′ = not defined here; Ac6c = NC1(C(=O)O)CCCCC1; PEG = not defined here

Legend:
[1] = system: antisera CF1064; conditions: ELISA and lateral flow, FIG. 19
Source text: To refine the peptide design and remove peripheral interactions of antibodies not binding the galactose moiety in the peptide, the original sequence MOL136 was truncated to a shorter sequence MOL600: […]

[2] = system: MOL136 and MOL136c; assay: Lateral flow assay with gold-labelled antisera on streptavidin capture zone; format: binding; conditions: gold-labelled CF1064; peptide 1.3 ng/ml (38 μg per strip)
Description: CF1064 was conjugated to gold particles in optimised conditions (15 μg/ml loading in 10 mM sodium borate buffer; pH 8.0) and assayed against MOL136 and MOL136c at a final concentration of 1.3 ng/ml (38 μg per strip). Thus, a capture zone was first formed on each lateral flow test strip using 1.5 mg/ml streptavidin. Then, 3 μl of each peptide (12.5 ng/ml peptide in PBST) was mixed with 10 μl of gold-labelled CF1064 and 15 μl of running buffer (0.5 M Tris at pH 7.5+3% BSA+0.5% Triton X-100) before each sample was run along a separate lateral flow test strip. A negative control in which no peptide was added was also run as a negative control. 15 μl of running buffer wash was then run along each lateral flow test strip.

[3] = system: sialidase; conditions: 25 U/ml sialidase in PBST for 5 minutes
Description: Thus, a capture zone was first formed on each lateral flow test strip using 1.5 mg/ml streptavidin. Then, 3 μl of each peptide (12.5 ng/ml peptide in PBST) was mixed with 10 μl of gold-labelled CF1064 and 15 μl of running buffer (0.5 M Tris at pH 7.5+3% BSA+0.5% Triton X-100) before each sample was run along a separate lateral flow test strip. A negative control in which no peptide was added was also run as a negative control. 15 μl of running buffer wash was then run along each lateral flow test strip.
The procedure described in Example 4B was repeated in the presence of 25 U/ml sialidase. A sample in which sialidase was absent was used as a negative control. A further negative control was run in which no peptide and no sialidase was included in the sample. As a positive control, MOL136 was used in place of MOL136c in the presence of 25 U/ml sialidase.

[4] = system: T1, MOL136c: biotin-PEG-Asp-Glu-DSer-Nva-Cyc-DAla-Ser[Gal-Sial]-DAla-Arg-Phe-DSer-Val-OH
T1 sequence: DESXXASARFSV

[5] = system: T2, MOL600c: NH2-Cyc-DAla-Ser[Gal-Sial]-DAla-Arg-PEG-Biotin
T2 sequence: XASAR

[6] = target: T3, MOL600: NH2-Cyc-DAla-Ser[Gal]-DAla-Arg-PEG-Biotin (reading uncertain; also: printed as NH2-Cyc-DAla-Ser[Gal]-DAla-Arg-PEG-Biotin); assay: bio-layer interferometry, peptide immobilised on streptavidin biosensor, antibody at 1, 2, 4, 8 or 16 nM
T3 construct: MOL600 is its de-sialylated form; Immobilised on a streptavidin biosensor through biotin
T3 peptide: H-[Ac6c][dA]S(Gal)[dA]R-{PEG-Biotin′}
Description: (§1) MOL615 was biotinylated to yield MOL600 (sequence provided in Example 7) and antibody binding affinity and kinetics was measured using bio-inferometry. […] Binding of the antibody was detected by a shift in the reflected light interference.

[7] = system: MOL600; assay: Antibody binding affinity and kinetics by bio-inferometry, peptide immobilised on biosensor by streptavidin/biotin
Description: as §1

[8] = antibody at 1, 2, 4, 8 or 16 nM, MOL600 immobilised

“NH2—Cyc-DAla-Ser[Gal-Sial]-DAla-Arg-PEG-Biotin [MOL600c]” was tested, and the “performance compared with MOL136/MOL136c” value [1] was “significant improvement in performance”.

For “NH2—Cyc-DAla-Ser[Gal]-DAla-Arg-PEG-Biotin [MOL600]”, the “performance compared with MOL136/MOL136c” value [1] was “significant improvement in performance”.

In the case of “biotin-PEG-Asp-Glu-DSer-Nva-Cyc-DAla-Ser[Gal-Sial]-DAla-Arg-Phe-DSer-Val-OH [MOL136c]”, the “signal in the capture zone (visible line on the test strip)” value [2] is reported as “little/no signal” and the “lateral flow signal after sialidase incubation” value [3] is reported as “clear positive signal”.

In the case of “biotin-PEG-Asp-Glu-DSer-Nva-Cyc-DAla-Ser[Gal]-DAla-Arg-Phe-DSer-Val-OH [MOL136]”, the “signal in the capture zone (visible line on the test strip)” value [2] is reported as “clearly detected”.

In the case of sialidase, the “lateral flow test line signal with gold-labelled CF1064” value [4] is reported as “A clear positive signal was observed in respect of MOL136c incubated in the presence of 25 U/ml sialidase in PBST for 5 minutes” and the “lateral flow test line signal” value [5] is reported as “signal has been recovered by spiking in sialidase”.

B1: monoclonal antibody 125.1 (antibody, V domains shown)
VH: QSVEESGGRLVTPGTPLTLTCTVSGFSLSSYSMDWVRQAPGKGLEWVGGITTTLHTFYATWAKGRFTISKTSSTTVDLKMTSLTTDDAATYFCARGGSSVIWGPGTLVTVSS
VL: ALVMTQTPSPVSAAVGGTVTISCQSSQSVYGNNHLNWHQQKRGQPPKQLIGSASRLASGVPSRFKGSGSGTQFTLTISGVQCDDAATYYCQGSYYNGAWYVAFGGGTELEIKR
modifications: Pyro-Glu(Q) at N-terminal of heavy chain; N-linked glycosylation at constant region N@285; additional O-linked glycosylation site between positions 213 and 216 (partly occupied); C-terminal lysine eliminated
notes: Rabbit monoclonal from immunisation with KLH-MOL616; Gamma heavy chain and Kappa light chain
Molecule B1 has a Kd [6] of 7.9 nM, a koff [6] of 0.000427 s⁻¹ and a kon [6] of 54100 M⁻¹ s⁻¹.

B2: antibody 125.1: rabbit monoclonal antibody, heavy chain SEQ ID NO: 7, light chain SEQ ID NO: 8, specific for Cyc-DAla-Ser[Gal]-DAla-Arg (antibody, listed as Oryctolagus cuniculus)
heavy: QSVEESGGRLVTPGTPLTLTCTVSGFSLSSYSMDWVRQAPGKGLEWVGGITTTLHTFYATWAKGRFTISKTSSTTVDLKMTSLTTDDAATYFCARGGSSVIWGPGTLVTVSSGQPKAPSVFPLAPCCGDTPSSTVTLGCLVKGYLPEPVTVTWNSGTLTNGVRTFPSVRQSSGLYSLSSVVSVTSSSQPVTCNVAHPATNTKVDKTVAPSTCSKPTCPPPELLGGPSVFIFPPKPKDTLMISRTPEVTCVVVDVSEDDPEVQFTWYINNEQVRTARPPLREQQFNSTIRVVSTLPIAHEDWLRGKEFKCKVHNKALPAPIEKTISKARGQPLEPKVYTMGPPREELSSRSVSLTCMINGFYPSDISVEWEKNGKAEDNYKTTPAVLDSDGSYFLYSKLSVPTSEWQRGDVFTCSVMHEALHNHYTQKSISRSPG
light: ALVMTQTPSPVSAAVGGTVTISCQSSQSVYGNNHLNWHQQKRGQPPKQLIGSASRLASGVPSRFKGSGSGTQFTLTISGVQCDDAATYYCQGSYYNGAWYVAFGGGTELEIKRDPVAPSVLLFPPSKEELTTGTATIVCVANKFYPSDITVTWKVDGTTQQSGIENSKTPQSPEDNTYSLSSTLSLTSAQYNSHSVYTCEVVQGSASPIVQSFNRGDC
B2 was tested, and the “binding specificity for MOL600 compared to the sialylated form MOL600c” value ([7]; FIG. 27) was “clearly specific for MOL600”, the Koff [7, 8] was 0.000427 s⁻¹ and the Kon [7, 8] was 54080 M⁻¹ s⁻¹.
